B1: TRIM63 (parent)
chain: FRCPTCRHEVIMDRHGVYGLQRNL
B2: CDC14A (parent)
chain: LNLAMVYRYCCKLNKKLKSYSLSR

Variants of: B1
Test: protein stability index of a GFP-peptide fusion (GPS, HEK-293T) (PSI 1-6); higher = more stable
Settings: c terminus: a fixed tail appended
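Note: lentivirally expressed fusions sorted by FACS into six bins by GFP to DsRed ratio, PSI derived from sequencing read proportions per bin multiplied by bin number.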

Protein stability index, by site and new letter:
R2: C 2.58; W 2.42; D 3.32; I 2.79; V 1.86; A 2.96; E 2.55; S 1.4; G 3.06; H 2.17; P 1.56; F 3.38; T 2.05; M 2.58; L 1.98; Q 1.84; Y 1.87; N 1.44; K 1.77
F1: P 3.34; V 2.15; S 2.62; K 2.91; T 3.56; L 3.27; I 1.47; E 2.69; G 1.38; N 3.53; M 2.72; A 1.16; H 2.39; D 2.76; W 2.14; C 2.44; Y 1.96
C3: D 1.7; A 3.2

Variants of: B2
Test: as above
Settings: c terminus: a fixed tail appended

Protein stability index: each site, then its substitutions
K15: I 3.62; D 2.33; Q 4.63
K16: Y 2.72; Q 2.35; C 4.54; G 3.28
L22: D 2.2; N 1.75; E 1.85; T 2.8; K 2.39
L17: V 4.14; A 2.65; G 2.85; C 4.4; T 2.08; M 3.07; P 3.05; Y 3.33; D 2.14
N14: E 4.6; A 3.35; I 2.38; Q 4.32
C11: D 2.85; K 3; W 2.15
Y20: S 2.63; A 2.61; L 2.94; C 3.44; T 2.42; D 3.34
K18: L 1.71; A 2.11; P 2.5; N 2.77; E 3.12; D 2.42
L3: Y 1.81; K 3.48
Y9: E 2.45; C 2.59; G 3.25; D 2.91; R 2.03; W 2.91; Q 3.9; T 2.54
S23: V 2.77; W 3.77; D 2.55; Y 2.97; I 3.46; P 2.95; N 2.35
L1: C 3.72; M 3.23; Y 2.49; H 2.26
Y7: V 3.72; C 2.73; P 2.23; E 2.16; G 2.43; H 2.68; S 3.42
C10: F 2.71; P 2.05; G 2.71; R 1.59; S 2.28; L 2.67
S19: K 2.19; W 3.46; I 3.03; N 2.8
A4: W 1.8; C 3.81; R 3.08; T 2.15; G 3.33; N 3.18; L 2.68; S 3.5; K 1.59
S21: D 2.01; G 2.26; C 3.76; L 2.25
K12: W 2.14; Q 3.04; N 2.15
N2: A 3.34; L 2.17; P 3.42; I 2.14; V 1.82; Y 2.64
L13: H 2; E 2.48; W 1.96; V 4.56; D 2.11; Y 2.32
M5: E 3; Q 1.56; P 3.2; Y 3.21
R8: H 4.35; F 3.02; K 2.08; Q 2.26; S 2.98; D 3.23
R24: H 2.69; I 3.79; L 3.97; S 2.19; A 3.55
V6: Y 2.45; D 2.05; E 1.76; T 2.46; Q 2.85; N 1.63; P 2.15; F 5.59
